These results are taken from paper PMC12711580, “Florigen activation complex forms via multifaceted assembly in Arabidopsis” (Nature, 2025).

Positions count from the first letter of the chain named. In names and notes the source's numbering stands.

T1: MBP–FD(T282E), maltose-binding protein-fused phospho-mimic mutant FD (Arabidopsis thaliana, UniProt Q84JK2 2-285, T282E)
T1 construct: FD, bZIP transcription factor, Arabidopsis thaliana; residues 2-285; codon-optimised for E. coli; also called MBP-FD^(2–285 (T282E)); source: E. coli, purified (Ni-NTA, size-exclusion chromatography); not shown: MBP, N-terminal, kept
T1 sequence (looked up): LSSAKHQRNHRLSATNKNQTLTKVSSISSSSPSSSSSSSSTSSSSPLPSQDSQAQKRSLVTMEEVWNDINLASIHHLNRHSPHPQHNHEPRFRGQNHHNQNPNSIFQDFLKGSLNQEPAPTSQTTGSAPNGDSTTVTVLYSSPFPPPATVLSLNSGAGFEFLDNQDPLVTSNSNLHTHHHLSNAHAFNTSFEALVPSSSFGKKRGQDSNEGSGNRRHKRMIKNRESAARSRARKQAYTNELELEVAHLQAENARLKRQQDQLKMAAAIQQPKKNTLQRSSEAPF

B1: MBP–FDc(T282E), N-terminal MBP-fused, truncated FD (amino acids 215–285) (domain or fragment, Arabidopsis thaliana, UniProt Q84JK2 215-285, looked up)
chain: NRRHKRMIKNRESAARSRARKQAYTNELELEVAHLQAENARLKRQQDQLKMAAAIQQPKKNTLQRSSEAPF
notes: FD, Arabidopsis thaliana; also called MBP-FDc^(215–285 (T282E)); source: E. coli, purified; not shown: MBP, N-terminal, kept
B2: MBP–FDc(T282E) Mu2 (Y238A,E243A) (domain or fragment, Arabidopsis thaliana, UniProt Q84JK2 215-285, looked up)
chain: B1 chain with Y24A, E29A
notes: FD, Arabidopsis thaliana; amino acids 215–285; source: E. coli, purified; not shown: MBP, N-terminal, kept
B3: MBP–FDc(T282E) Mu6 (L263A) (domain or fragment, Arabidopsis thaliana, UniProt Q84JK2 215-285, looked up)
chain: B1 chain with L49A
notes: as for B2
B4: MBP–FDc(T282E) Mu3 (L242A) (domain or fragment, Arabidopsis thaliana, UniProt Q84JK2 215-285, looked up)
chain: B1 chain with L28A
notes: FD, Arabidopsis thaliana; amino acids 215–285; L242A is printed for Mu3 only in the name of the transgene gFD::3HA-3Flag-FD^Mu3_L242A; source: E. coli, purified; not shown: MBP, N-terminal, kept
B5: GRF7 (14-3-3ν), recombinant (natural protein, Arabidopsis thaliana, UniProt Q96300 1-265, looked up)
chain: MSSSREENVYLAKLAEQAERYEEMVEFMEKVAKTVDTDELTVEERNLLSVAYKNVIGARRASWRIISSIEQKEESRGNDDHVSIIKDYRGKIETELSKICDGILNLLDSHLVPTASLAESKVFYLKMKGDYHRYLAEFKTGAERKEAAESTLVAYKSAQDIALADLAPTHPIRLGLALNFSVFYYEILNSPDRACSLAKQAFDEAISELDTLGEESYKDSTLIMQLLRDNLTLWNSDINDEAGGDEIKEASKHEPEEGKPAETGQ
notes: GRF7 (14-3-3ν), Arabidopsis thaliana; cloned into pMAL-c5X-His or a modified pMAL-c5X vector; also called GRF7-6His; source: E. coli, purified (Ni-NTA, size-exclusion chromatography)

For data set [1], the target named is B5. Nature of the data set: SEC-MALS; MBP–FDc(T282E) or its mutants with GRF7; 25 mM Tris-HCl pH 8.0, 160 mM NaCl, 2% glycerol; Superdex 200. As to conditions: both partners purified. For orientation: In gel filtration, larger molecules generally elute earlier.
Data set [2] deals with the molecule itself. Kind of data set: SEC-MALS; MBP–FDc(T282E) alone at low concentration; 25 mM Tris-HCl pH 8.0, 160 mM NaCl, 2% glycerol; Superdex 200.
Data set [3] concerns the molecule itself. Kind of data set: SEC-MALS; MBP–FDc(T282E) or its mutants with GRF7; 25 mM Tris-HCl pH 8.0, 160 mM NaCl, 2% glycerol; Superdex 200.
In data set [4] the target is T1, MBP–FD(T282E), maltose-binding …. Kind of data set: SEC; gel filtration of mixed purified proteins without DNA, fractions analysed on gel. The note with it: both partners purified.

One may read the stoichiometry N as the number of molecules, sites or subunits per partner or assembly. Regarding B1, in data set [1], the binding result is given as “binds”. In addition, in data set [2], the “stoichiometry N” value came to 2.

As to B2, the binding result in data set [1] and in data set [3] was “binds” each time.

B3: the binding result in data set [1] and in data set [3] was “binds” in each case.

On to B4, for which, in data set [1], the “stoichiometry N” value is 1 copy of FDc(T282E) per GRF7 dimer.

As for B5, the binding result in data set [4] is recorded as “binds”.
